# The DeepSol protein solubility set
# Experiment: soluble on expression in E. coli; label from the status in PepcDB or PDB records
row,Sequence,soluble on expression in E. coli
1,MTTSSHGLEKAMELAKFSKSQKERAREILEAGLLEATYGHLAPSSNFVGGMCVGNVSPGGEPVNLNAKVTGYLPKIKEMAEKHGVAQYVGILAAQMMQESQGEGNDPMQAAEGHYGDLSSSCIGLKGSARIGCIKDPNISIEAGVQEFKDVLAKANGDIALALQSYNYGPGFISYALAKGGYSEETAIAFSREHAGENPAGCSDPNNFRTKVGACYGDFTYVSKILKYYKDLGCVTAGDGEWISDKGWKWPTKSGRITDTFDAVRNGKQHNAVDIGAMTAGKPGDPVWSMEAGVVTAQTGYVNYGGLGVYIDHGNGIVSRYLHLSKISVTPGTMVTKGQIIGEMGGSNYVGGVLNMLGYAVHLDFQIRINDQPTDPMKFFKKNDDPGLSSGGSPTMTNAKRQKVLEEAKKWLGQGKVRYVLGDRNPPGGTSDCSGFTQYVFRTSIGVQLGDWTGAQVGQGKQVPDINHAQPGDLIFYENPGHVAIYMGNQKMIHIGDNKGVQITGLNYTARGQHMTQIRNVID,not soluble
2,MDVSFEFEHYQVRLIKSSDAVTIANYFMRNRHHLAPWEPKRSHAFFTPEGWKQRLLQLVELHKHNLAFYFVVVDKNEHKIIGTVSYSNITRFPFHAGHVGYSLDSEYQGKGIMRRAVNVTIDWMFKAQNLHRIMAAYIPRNEKSAKVLAALGFVKEGEAKKYLYINGAWEDHILTSKINDDWKP,soluble
3,MNKLDTSQLKIASMGGGHGLFQTLRAVRQLNPASIDAIVTVADDGGSSGRIRRELGQIPPGDLRMALAALAPFDDEGLQWETLLQHRFGGHGALAGHAVGNLIIAGLCDTLGSEIAALDAVAKVIKAEGRVLPACAEPLEIAAEVSGLDDDPRIMREVIGQVAVASTPGTVRRVRLIPERPEATEESVEAIENADLVTLGPGSWFSSVIPHVLVPGIPTALATTKALRVVVLNLSPEPGETAGFTAERHIHILSQHAQTLRADVILVDEGLIPHKGERVHLERAAAVLGAQISYHDLSETDPSGRRIHRHDPAKLAEALRLQLLEHHHHHH,soluble
4,MAKKGPKRHLKRLAAPVRWELPRKIHKFTVRPLPGAHPMSESLPLLLIVRDILKYADNAREAKKIIKMGKVLVDGRVRKEEKLPVGLMDVVSLPDANENYRVLFDRKGRIKLKPTENPDVKLCKIKNKTVIKGGHIQLNLHDGRNIVIKVSDPTKAEEDVYKTGDTLLISIPEQEIKAHIPFEVGKLAYITGGKHVGDFAKIVEIERRGIYPDIVTLENMDGEKFKTVKDYVFVVGDEEPIIKLLEHHHHHH,soluble
5,MGDVAGMAYLDSMSNEKVWFGYTLKEAQAQQIGLGLDLKGGMNVILKLNASDLLRNLSNKSLDPNFNKALENAAKSTEQSDFIDIFVKEYRKLDPNGRLAVIFGSGDLRDQITAKSTDADVVRLLKEKYNSAVEASFNVLRARIDAFGVVAPNLQRLEGQGRILVELPGVKDPERVRTLLQRSANLQFWRTYKFEEVSGDLIAANDRLSELAMNNTDATPETEPATTDSVAATADSAAVQAVADSATVAQKEAKDATRKDALFSLLTPVNRGGAVVGVARRANMAQISEMLQQAHDLKVTREDVLFLWGAKAIEDPETKKETDLYELYAIRTNRTGDPDLGGDVVTSAKSDIQNDFGRSEPIVSMTMNEEGARKWARITKDNVGRAIAIVLDGVVYSAPNVNDEITGGRSQISGHFTVEEAGDLANVLNSGKMDATVSIEQENVIGPTLGAESIKA,not soluble
6,MGSDKIHHHHHHMYSHPTAIQTMSDGTIKQVNPFSGTEVWTVPGRGHRPLSTSQGNITPITPSDHSNTCAFCSDRYLDTPPEKARIVRDDDGWTILRGVLPDRLHDSVPAFRRVSNLFEIVSYDYWRNNYGFSMDLETTDWMQSYISTEKGREHVLATVRTKLQAAGIQDMPDDATLLPQGEAFFGGGHDLIIGQRHFVPDATQSDQLASAGTLSPDEHFAFIFFTVDALREAYQRNRYAPYVAVFQNWLKPAGASFDHLHKQLVAIDERGVHGETEIAKLRNYPNMYNEWAVDYAGQRNLIIAENDHAVCFAGFGHRYPTLEVFSRSATPEPWLQTNEEIKAMSDLIHACHAAAGPHVPCNEEWHHKPIDLDIAMPWRVMIKWRVSTLAGFEGSTKVYLNTLSPWDVRDRVVPRLYELRDSGAIDGSIRIATECSVRRNSLLYNKNLNM,not soluble
7,MNLGFRVTGKFVRELLDVLDEIAEEIRQEEKEKYPYTEWERKREVVKERLRKLPEYVREAISVITVQKRVGRPKKVDLEKRVMLFLFARLMDKSNRDIEELLELFEPLFGIKVSYKTIERLYSDEEVRMALHNLFILLLREEGVSGDFSGDGTGYSLTITKHYRSNPKRKGKDFRYVFRIIDIDTGMYVGFGYSDRSEKDAFEKALGMLKSMGVKVNSISLDKYYSSRKTLRLFDAETAVYVIPKRNLARIGFDWLRVIERIVEAPYRFLKRYFKRNLSEAGFSADKRRFGWLIRQRREDRREMALFAVGLWHNVFAVRVVR,not soluble
8,MPNEQKRFVTGPAGRLETVVTLPEGAPRGLAIVAHPHPLYQGSMDNKIVYILSRAFIEQQYITVKFNFRGVGASEGSYAEGKGEIEDVMAVTQAMREQYDTGPEPLPLTLAGFSFGGAVQAHVAQQLKPSRLVLVAPSVERLQAPPVVDHARHILVIQGDQDTIVPLQSILNWAAPQTLPVTVIPGAEHFFHGKLHVLKNVILQSCSISQAATSLYP,not soluble
9,GLVPRGSHMTGRMLTLDGNPAANWLNNARTKWSASRADVVLSYQQNNGGWPKNLDYNSVGNGGGGNESGTIDNGATITEMVFLAEVYKSGGNTKYRDAVRKAANFLVNSQYSTGALPQFYPLKGGYSDHATFNDNGMAYALTVLDFAANKRAPFDTDVFSDNDRTRFKTAVTKGTDYILKAQWKQNGVLTVWCAQHGALDYQPKKARAYELESLSGSESVGVLAFLMTQPQTAEIEQAVRAGVAWFNSPRTYLEGYTYDSSLAATNPIVPRAGSKMWYRFYDLNTNRGFFSDRDGSKFYDITQMSLERRTGYSWGGNYGTSIINFAQKVGYL,soluble
10,MGSDKIHHHHHHTEGWFMPFDNWLYQLQNADPVEISSSGFEIAVIDYSKDGSESGEYSPEEIKIMVDAGVVPVAYVNIGQAEDYRFYWKESWYTNTPEWLGEEDPAWPGNYFVKYWYNEWKEIVFSYLDRVIDQGFKGIYLDRIDSFEYWAQEGVISRRSAARKMINFVLEIAEYVRERKPDMLIIPQNGENILDFDDGQLASTVSGWAVENLFYLKTIPLEENETKSRLEYLIRLNRKGKFILSVDYVDDGSDSFENISRILDYYEKAKRNGCIPYAARSDLELDEMNVIEGIQPPEALKDYESRTYR,soluble
11,MGSDKIHHHHHHMTVLIVTFSNDNESIPLVIKEIEARGEKAFRFDTDRYPTEVKLDIYCGDTERVIITDGEQKLDLSEVSSVWYRRMRYGQKIPDSMDKQYRDASIQECRVTVRGMIASLPGFHFDQMANVDRANNKQLQLKVAKEVGLLTPRTLTSNNPEAVKKFAQDCPQGIITKMLSSFAIYDDQGRENVVFTTPITNDDLENMEGLCFCPMTFQENIPKALELRTTIVGHHVFTAAVDSQSLQGSTYDWRKEGKNLAKNWQPYNLPEDIEKKLLKLMANFGLKYGAIDIIVTPDGRHVFLEVNPVGEFFWMEIYPPYYPISQAIAEILLTHKS,not soluble
12,FFSGLFQRKSDAPVTTPAELADAIGLSYDTYTGKQISSQRAMRLTAVFSCVRVLAESVGMLPCNLYHLNGSLKQRATGERLHKLISTHPNGYMTPQEFWELVVTCLCLRGNFYAYKVKAFGEVAELLPVDPGCVVYALGRCQRWPEGDRRECYSAR,soluble
13,MGYIQSGKSKVEIVNVSETVTSAANVSQYPVESGAPITDNMMYTGGPVTISGWILAKNGNAAEQAYNTLVAWQKDVRWIVYRGRSYFKNAVIQDISKGYDTVENGFTITITLQPIRVAKTIWEKIPQPPVAKQPSKPSNAVYVTVQPGNTYWGWWQQYGTSIQQLRDWNKWPDRFIPIGARARVK,not soluble
14,SMSSHDGLMVFTGNANPALAQEVVKILGIPLGKAMVSRFSDGEIQVEIQENVRGKDVFVLQSTCAPTNDNLMELMIMVDALKRASAGRITAAIPYFGYARQDRRPRSARVAISAKVVANMLEIAGVERIITMDLHADQIQGFFDIPVDNIYATPILLGDLRKQNYPDLLVVSPDVGGVVRARALAKQLNCDLAIIDKRRPKANVAEVMNIIGEVEGRTCVIMDDMVDTAGTLCKAAQVLKERGAKQVFAYATHPVLSGGAADRIAASALDELVVTDTIPLSAESLACPKIRALSSAGLLAETFSRIRRGDSVMSLFAES,soluble
15,MTIKIALLGFGTVAKGIPYLLKENQHKLLSLEGEDIVIDKVLVRDNESRQRFINQGFTYNFVTEINTILQDSQIDIVVELMGGIEPAKTYLSQALGFGKHIVTANKDLIALHGKELMDLADARGLALFYEGAVAGGIPILRTLSHSFASDKMTRLLGILNGTSNFMLTKMFEEGWSYEQALKKAQELGYAESDPTNDVEGIDTAYKATILSQFGFGMPIDFDDVNYKGISSIRSEDVEVAQEMGFAIKLVADLRETPTGISVDVSPTLISQKHPLAAVNHVMNAVFIESIGIGQSLFYGPGAGQNPTATSVLADIIDISRSIRSQIKIKPMNTYHCPCRLSMQSDIFNEYYLAISLRNAEDSDTLGRYFEQENIGLKNVIEKALGDKQQEIYVLTDEVSQEKITQFIEEFPESGVIQLINVFKVIGGLEHHHHHH,soluble
16,MNDDLIMRKKPEQIEMEFQDSGESALVKSTLLSSLQNSEWEIAVRKEVKKFLEKARDDVSAKEVFDAVKDMARREIPQEAKKKLYDQVLEFVTTTNKK,not soluble
17,MEQHPIKINKVQIRNLQIEDYAQLSQSFTRVYSDGSDVFWTHAQIKKLISIFPEGQIVTVVDDKIVGCALSIILDYDKVKNDHTYAQVTGKETFNTHNPEGNILYGIEVFIHPGYRGLRLARRMYEYRKELCETLNLKAIMFGGRIPNYHKYADKMRPKEYIARVRQREIYDPVLTFQLSNDFHVRKVMTNYLPNDEESKHYACLLQWDNIYYQPPTQEYINPKTTVRVGLVQWQMRSYKTLDDLFEQVEFFVDAVSDYKSDFVLFPEYFNAPLMSKFNDKGESQAIRGLAKYTDEIRDRFINLAISYNINIITGSMPYVKEDGLLYNVGFLCRRDGTYEMYEKMHVTPDEIKSWGLSGGKLLQTFDTDCAKVGVLICYDVEFPELSRLMADQGMQILFVPFLTDTQNAYSRVRVCAQARAIENECFVVIAGCVGNLPRVHNMDIQYAQSGVFTPCDFAFPTDGKRAEATPNTEMILVSDVDLDLLNALHTYGSVRNLKDRRNDVYEVRFKK,not soluble
18,MSLNGQNTISDIGDATEDQIKDVIQIMNDNIDKFLERQERVSLLVDKTSQLNSSSNKFRRKAVNIKEIMWWQKVKNITLLTFTIILEGHHHHHH,not soluble
19,MSLTPATETVSPISQWYDMMTRMFPDQRLTFLNYGYLAQDSDFDWINDADLEQKCSVNLIRTLLGDSDLRGKKVLEIGSGRGGNCSYLARYTGAASVTGLDFCPAHIELCNRVHALPGLSFVGGDAMALPFADNEFDVVINIESSHCYPDLNTFGAEVQRVLKQDGRFFYADTMKGDNTSALSEPDSIGVDFFSNVLAQHQAMIEHARFKVEEHRDISDGVIRAFESQDGHLKHLLRSLVEEKKQQREPLPPEVWHAFDTMFHFFDDSGIKAYKNGHLAYKFWRLQKAAEGHHHHHH,not soluble
